Assay results taken from patent US20160200831A1 (Sanofi, published 2016).

Key:
[1] = molecular target: T1, glycosylated human PAI-1 (active form) (human, UniProt P05121 24-402, glycosylated); assay: cell-based or functional assay
[2] = molecular target: T1, glycosylated human PAI-1 (active form); assay: cell-based or functional assay; remark: listed apart in the source
[3] = molecular target: T1, glycosylated human PAI-1 (active form); assay: Biacore (summary table)
Procedure: (§1) In kinetics measurement, the antibodies were evaluated in reverse at 25° C. In the reverse assay, PAI-1 antibodies were captured to the anti-mouse IgG Fc antibody surface prepared on CM5 chip followed by injecting the serial 2× dilutions of PAI-1 proteins (human or cyno) starting at 40 nM. A high flow rate was chosen at 50 ul/min to avoid mass transportation limitation. Two thousand seconds was allowed for dissociation time to accommodate for the slow off rate of the selected antibodies. The chip was regenerated by glycine-HCl, pH 1.7 buffer after each round of antibody-PAI-1 binding. Kinetics data analysis was performed using Biacore BIAevaluation software. The sensorgrams were double-referenced by subtracting the reference flow cell values and the blank buffer values. The sensorgrams were fitted by using the simulated kinetics 1:1 (Langmuir) model with local Rmax.

[4] = molecular target: T2, human PAI-1 (human, UniProt P05121 24-402); assay: cell-based or functional assay
T2 sequence (P05121 24-402 limits assumed): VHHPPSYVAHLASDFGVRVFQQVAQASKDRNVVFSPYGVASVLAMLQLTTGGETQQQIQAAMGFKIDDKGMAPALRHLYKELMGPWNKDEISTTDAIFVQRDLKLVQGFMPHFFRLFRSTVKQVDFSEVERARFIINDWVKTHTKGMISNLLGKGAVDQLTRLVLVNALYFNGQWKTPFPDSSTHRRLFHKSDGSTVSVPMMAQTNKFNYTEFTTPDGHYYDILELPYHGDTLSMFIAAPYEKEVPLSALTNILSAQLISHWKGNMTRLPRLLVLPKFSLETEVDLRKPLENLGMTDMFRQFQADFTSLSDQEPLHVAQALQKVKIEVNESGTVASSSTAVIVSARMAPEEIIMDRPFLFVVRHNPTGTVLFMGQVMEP

[5] = molecular target: T2, human PAI-1; assay: Biacore, hybridoma supernatant; hybridoma supernatant, off-rate screen (class, not a fitted rate)
Procedure: In the Biacore reverse screening assay, ELISA positive hybridoma supernatants were selected and filtered through 0.2 μm filters before being injected onto Biacore chip surface. Each hybridoma supernatant was injected onto one flow cell of flow cells Fc2-Fc4 and the IgG in the hybridoma supernatant would be captured to the chip surface by anti-mouse IgG Fc mAb, while Fc1 was left alone as reference cells. Human PAI-1 protein in PBS was then injected to Fc1 to Fc4. PBS buffer was also injected over the chip surface as a blank. After subtracting signals of Fc1 and blank buffer runs, the binding affinity (KD)/disassociation rate (kd) of the antibody from the supernatants to PAI-1 protein was analyzed and ranked using Scrubber 2 software.

[6] = molecular target: T2, human PAI-1; assay: Biacore reverse assay, mAb captured by anti-mouse IgG Fc, 25 C; reverse assay: B28 captured by anti-mouse IgG Fc, PAI-1 injected, 25 C
Procedure: as §1

T1 sequence (P05121 24-402 limits assumed): as above

B1: B28 (antibody, mouse IgG2b, V domains shown)
VH: QVQLQQSGAELMKPGASVKISCKATGYTFSISWIEWIKQRPGGLEWIGKILPGSGGANYNEKFKGKATVTADTSSNTVYMQLSSLTSEDSAVYYCARLSTGTRGAFDYWGQGTTLTVSS
VL: DIQLTQSPASLSASVGATVTITCRASENVYSYLAWYQQKQGKSPQLLVYNAKTLAEGVPSRFSGSGSGTQFSLKINYLQPEDFGSYYCQHHYGTPPTFGGGTKVEIKR
notes: mouse IgG2b/kappa; also called mB28; B28 (IgG2b/k)
plasmin generation, hepatic stellate cells, IC50abs [1]: 7.28 nM | plasmin generation, hepatic stellate cells, Imax [1]: 90% | Chromogenic Assays [2]: 1.8 nM | Plasmin Generation [2]: 7.28 nM | Kd [3]: 0.65 nM | EC50, % neutralization of hPAI-1 (chromogenic assay) [4]: 2.3 nM | koff [5]: ≤ 0.0001 s⁻¹ | Kd [6]: 0.65 nM | koff [6]: 0.000461 s⁻¹
